± gives the uncertainty stated by the source.
B1: SWI/SNF complex subunit SMARCC2, residues 599 to 641; numbered along this chain, Q8TAQ2 (parent)
chain: REWTEQETLLLLEALEMYKDDWNKVSEHVGSRTQDECILHFLR

Variants of: B1
Assay: abundance fitness (aPCA) (normalised: wild type 0, dead -1); higher = more abundant; growth selection in yeast, the domain comes from the species named
Details: Homo sapiens
For REWTEQETLLLLEALEMYKDDWSKVSEHVGSRTQDECILHFLR [N23S], the abundance fitness was 0.064 ± 0.065. Variant REWTEQETLLLLEALEMYKDDWNRVSEHVGSRTQDECILHFLR [K24R] has an abundance fitness of 0.064 ± 0.066. REWTEQETLLLLEALEMYKDDWNKVSEHVISRTQDECILHFLR [G30I] showed an abundance fitness of -0.147 ± 0.12. For REWTEQETLLLLEALEMYKDDWNKVSWHVGSRTQDECILHFLR [E27W], the abundance fitness was -0.495 ± 0.12. With REWTEQETLLLLEALEMYKDDWNKVFEHVGSRTQDECILHFLR [S26F] the abundance fitness was -0.709 ± 0.12. Variant REWTEQETLWLLEALEMYKDDWNKVSEHVGSRTQDECILHFLR [L10W] has an abundance fitness of -0.325 ± 0.13. REWTEQETLLLLRALEMYKDDWNKVSEHVGSRTQDECILHFLR [E13R] showed an abundance fitness of -0.172 ± 0.067. For REWTEQETLLLLEALEMYKDDWNKVSEHVGSRTQDECILHDLR [F41D], the abundance fitness was 0.344 ± 0.065. For REWTEQETLLLLEALEMMKDDWNKVSEHVGSRTQDECILHFLR [Y18M], the abundance fitness was -0.48 ± 0.15. REWTEQETLLLLEALEMYKDDWNKVGEHVGSRTQDECILHFLR [S26G] gave an abundance fitness of 0.084 ± 0.069. For AEWTEQETLLLLEALEMYKDDWNKVSEHVGSRTQDECILHFLR [R1A], the abundance fitness was 0.244 ± 0.084. REMTEQETLLLLEALEMYKDDWNKVSEHVGSRTQDECILHFLR [W3M] showed an abundance fitness of -0.181 ± 0.14. Work on REWTEQETLLNLEALEMYKDDWNKVSEHVGSRTQDECILHFLR [L11N] yielded an abundance fitness of -0.575 ± 0.09. Variant REWTEQETLLLLEALEMYKTDWNKVSEHVGSRTQDECILHFLR [D20T] has an abundance fitness of -0.412 ± 0.12. Work on REWTLQETLLLLEALEMYKDDWNKVSEHVGSRTQDECILHFLR [E5L] yielded an abundance fitness of -0.442 ± 0.086. REWTEQETLLLLEALECYKDDWNKVSEHVGSRTQDECILHFLR [M17C] gave an abundance fitness of -0.283 ± 0.17. REWTEQETMLLLEALEMYKDDWNKVSEHVGSRTQDECILHFLR [L9M] gave an abundance fitness of 0.2 ± 0.061. In the case of REWTEQETLLLLEALEMYKDDWNKVSVHVGSRTQDECILHFLR [E27V], the abundance fitness is reported as -0.515 ± 0.12. With REWTEQETLLLLEALEMYKDDWNKVSSHVGSRTQDECILHFLR [E27S] the abundance fitness was -0.21 ± 0.12. With REWTEQETLLLLEALEMYKDDWNWVSEHVGSRTQDECILHFLR [K24W] the abundance fitness was -0.351 ± 0.072. Work on REWTEQETLLLLEALEMYKDDWNKVSEHVGSRTQDECILMFLR [H40M] yielded an abundance fitness of -0.148 ± 0.4. REWTEAETLLLLEALEMYKDDWNKVSEHVGSRTQDECILHFLR [Q6A] gave an abundance fitness of 0.117 ± 0.074. For REWTEQETLLLLEALEMYKDDWNKVSEHVGSDTQDECILHFLR [R32D], the abundance fitness was -1.04 ± 0.3. Variant REWTEQETLLLLEMLEMYKDDWNKVSEHVGSRTQDECILHFLR [A14M] has an abundance fitness of -0.991 ± 0.17. Variant REWTEQETLLLLEALEMYKDDWNKVSEHVGSRTWDECILHFLR [Q34W] has an abundance fitness of -0.577 ± 0.17. For REWTEQETLLLLEALEMYKDDWNKVSEHVGSYTQDECILHFLR [R32Y], the abundance fitness was -0.426 ± 0.18. In the case of REWTEQETLLLLEALEMPKDDWNKVSEHVGSRTQDECILHFLR [Y18P], the abundance fitness is reported as -0.637 ± 0.091. In the case of REWTEQETLLLLEAVEMYKDDWNKVSEHVGSRTQDECILHFLR [L15V], the abundance fitness is reported as 0.336 ± 0.064. REWTEQETLLLLEKLEMYKDDWNKVSEHVGSRTQDECILHFLR [A14K] gave an abundance fitness of -0.844 ± 0.14. LEWTEQETLLLLEALEMYKDDWNKVSEHVGSRTQDECILHFLR [R1L] gave an abundance fitness of 0.094 ± 0.083. Variant REWTEQETLLLLEALEMYKYDWNKVSEHVGSRTQDECILHFLR [D20Y] has an abundance fitness of -0.072 ± 0.3. With REWTEQETLLLLEAFEMYKDDWNKVSEHVGSRTQDECILHFLR [L15F] the abundance fitness was -0.211 ± 0.36. Variant RMWTEQETLLLLEALEMYKDDWNKVSEHVGSRTQDECILHFLR [E2M] has an abundance fitness of 0.135 ± 0.18. Variant REWTEQETLLLLEAWEMYKDDWNKVSEHVGSRTQDECILHFLR [L15W] has an abundance fitness of 0.04 ± 0.073. In the case of REWTEQETLLLLEALEMYKDDWNKVSEHVGVRTQDECILHFLR [S31V], the abundance fitness is reported as -0.218 ± 0.071. REWTEQETLLLLEALEMYKDDWNKVSEHVGPRTQDECILHFLR [S31P] showed an abundance fitness of -0.434 ± 0.14. REWTEQETLLLLEALEMYKDDWNKVSEHVGSRTQQECILHFLR [D35Q] showed an abundance fitness of 0.378 ± 0.1. In the case of REWTEQGTLLLLEALEMYKDDWNKVSEHVGSRTQDECILHFLR [E7G], the abundance fitness is reported as -0.756 ± 0.12. For REWTEQETLLLLEALEMYKDDWPKVSEHVGSRTQDECILHFLR [N23P], the abundance fitness was 0.17 ± 0.059. For REWTEQETLLLLEALEMYKDDWNKVSTHVGSRTQDECILHFLR [E27T], the abundance fitness was -0.146 ± 0.14. REWTEQETLLLLECLEMYKDDWNKVSEHVGSRTQDECILHFLR [A14C] gave an abundance fitness of -0.804 ± 0.16. REWTEQETLLLLEALEMYKDDNNKVSEHVGSRTQDECILHFLR [W22N] gave an abundance fitness of -0.759 ± 0.15. Work on REWTEQETLLLLEALEMYKDDWNKVSEHVMSRTQDECILHFLR [G30M] yielded an abundance fitness of -0.341 ± 0.12. REWTEQETLLLLEALEMYKDDWNKVSEHVGSRTQDEPILHFLR [C37P] showed an abundance fitness of -0.708 ± 0.092. REWLEQETLLLLEALEMYKDDWNKVSEHVGSRTQDECILHFLR [T4L] showed an abundance fitness of -0.247 ± 0.1. Variant REWTEQETLLLLEALEMYKDDWNKVSCHVGSRTQDECILHFLR [E27C] has an abundance fitness of -0.379 ± 0.092. Variant DEWTEQETLLLLEALEMYKDDWNKVSEHVGSRTQDECILHFLR [R1D] has an abundance fitness of 0.232 ± 0.092. In the case of REWTEQETLLLLEALEMYKDDWNKGSEHVGSRTQDECILHFLR [V25G], the abundance fitness is reported as -0.755 ± 0.11. REWTEQETLLLLEALEMYKDDVNKVSEHVGSRTQDECILHFLR [W22V] showed an abundance fitness of -0.529 ± 0.086. REWTEQETLLLLLALEMYKDDWNKVSEHVGSRTQDECILHFLR [E13L] showed an abundance fitness of -0.598 ± 0.086. With REWTEQETLLLLEALEMYKDDWNKVSECVGSRTQDECILHFLR [H28C] the abundance fitness was -0.376 ± 0.16. Work on REWTEQETLLLLEALEMYKDDWNLVSEHVGSRTQDECILHFLR [K24L] yielded an abundance fitness of 0.054 ± 0.065. REWTEQETLLLLEALEMYKQDWNKVSEHVGSRTQDECILHFLR [D20Q] gave an abundance fitness of 0.244 ± 0.062. For REWTEQETLLLLEALEMYKDDWNKVSEHVGSRTQDECALHFLR [I38A], the abundance fitness was 0.149 ± 0.13. With REWTEQETLLLLEAGEMYKDDWNKVSEHVGSRTQDECILHFLR [L15G] the abundance fitness was -0.067 ± 0.076. Work on REWTEQETLLLLEALEMYKDDWNKVSEQVGSRTQDECILHFLR [H28Q] yielded an abundance fitness of -0.26 ± 0.26. REWTEQETLLLLEALEMYKDDWNKVLEHVGSRTQDECILHFLR [S26L] showed an abundance fitness of -0.27 ± 0.087. REWTEQETLLLLEALEMYKDDWNKVSEHVGSRTQNECILHFLR [D35N] showed an abundance fitness of 0.236 ± 0.22. REWTEQETLLLLEALEMYKDDWNKVSEHVGSRTQDECFLHFLR [I38F] gave an abundance fitness of 0.023 ± 0.097.
